We go through four molecules from patent publication US20040101919A1 (TEXAS A AND M UNIVERSITY SYSTEM, published 2004).

Assay [1] addresses T1, human fibrinogen (human, UniProt P02671 20-629; P02675 31-491; P02679 27-437).
T1 sequence 1: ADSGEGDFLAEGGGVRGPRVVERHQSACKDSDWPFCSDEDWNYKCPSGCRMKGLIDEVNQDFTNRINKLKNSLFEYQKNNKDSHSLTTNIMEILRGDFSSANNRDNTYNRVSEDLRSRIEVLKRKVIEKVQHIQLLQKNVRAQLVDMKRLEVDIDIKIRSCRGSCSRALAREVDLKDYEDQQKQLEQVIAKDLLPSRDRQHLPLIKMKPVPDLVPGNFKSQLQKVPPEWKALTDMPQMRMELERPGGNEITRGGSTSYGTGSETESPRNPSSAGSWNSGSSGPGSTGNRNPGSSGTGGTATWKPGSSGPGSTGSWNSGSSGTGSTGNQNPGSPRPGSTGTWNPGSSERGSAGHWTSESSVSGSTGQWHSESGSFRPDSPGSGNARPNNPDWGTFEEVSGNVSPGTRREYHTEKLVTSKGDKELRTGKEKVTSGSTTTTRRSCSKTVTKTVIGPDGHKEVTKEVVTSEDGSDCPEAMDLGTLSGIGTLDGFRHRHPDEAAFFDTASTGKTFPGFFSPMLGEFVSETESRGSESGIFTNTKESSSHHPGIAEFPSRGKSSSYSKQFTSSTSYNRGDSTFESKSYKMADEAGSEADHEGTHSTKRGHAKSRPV
T1 sequence 2: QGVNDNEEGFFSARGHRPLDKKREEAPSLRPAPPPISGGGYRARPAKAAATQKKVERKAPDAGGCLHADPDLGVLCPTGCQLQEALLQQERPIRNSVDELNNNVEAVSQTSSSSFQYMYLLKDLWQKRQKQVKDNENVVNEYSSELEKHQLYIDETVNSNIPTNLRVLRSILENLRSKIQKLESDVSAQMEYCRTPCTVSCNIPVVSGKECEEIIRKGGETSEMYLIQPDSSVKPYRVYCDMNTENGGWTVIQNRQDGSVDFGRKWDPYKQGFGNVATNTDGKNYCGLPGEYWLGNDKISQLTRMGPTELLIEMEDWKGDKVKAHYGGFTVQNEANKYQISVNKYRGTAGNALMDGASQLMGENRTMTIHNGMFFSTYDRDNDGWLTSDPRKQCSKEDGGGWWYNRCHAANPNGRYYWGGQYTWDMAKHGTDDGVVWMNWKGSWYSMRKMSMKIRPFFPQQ
T1 sequence 3: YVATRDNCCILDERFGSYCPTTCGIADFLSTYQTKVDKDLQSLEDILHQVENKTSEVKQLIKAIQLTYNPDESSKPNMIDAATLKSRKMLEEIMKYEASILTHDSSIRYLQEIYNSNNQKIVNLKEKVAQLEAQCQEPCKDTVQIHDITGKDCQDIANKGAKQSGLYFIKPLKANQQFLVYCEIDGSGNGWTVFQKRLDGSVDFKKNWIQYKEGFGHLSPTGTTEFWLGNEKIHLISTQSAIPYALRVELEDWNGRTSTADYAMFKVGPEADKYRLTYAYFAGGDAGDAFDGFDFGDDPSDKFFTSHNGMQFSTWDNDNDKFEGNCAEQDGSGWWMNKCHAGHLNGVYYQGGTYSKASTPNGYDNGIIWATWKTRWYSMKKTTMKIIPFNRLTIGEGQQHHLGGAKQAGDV
Kind of assay: ELISA, ECM protein coated, His-tag protein detected with anti-His6 mAb. On the technique in general: ELISA stands for enzyme-linked immunosorbent assay.
Experimental: Plates were washed once with PBS and blocked with 1% BSA in PBS for 1 h. Fifty □l of 5 and 10 µM concentrations of purified His-tag proteins in the blocking buffer were added and incubated at ambient temperature for 2 h. Plates were washed three times with 0.05% Tween20 in PBS and incubated 2 h with 1:3000 dilution of His₆-tag monoclonal antibody (Amersham Biosciences Corp., Piscataway, N.J.) in blocking buffer. After three washes, 1:3000 dilution of alkaline phosphatase-conjugated anti-mouse antibody in blocking buffer was added to the wells and incubated 2 h. Finally, signal was detected with nitrobluetetrazolium (NBT) and 5-bromo-4-chloro-3-indolyl-phosphate (BCIP) in 0.1 M NaHCO₃, 1 mM MgCl₂, pH 9.8. Absorbance at 405 nm was measured with an ELISA reader

Assay [2] deals with T1, human fibrinogen. The assay is described as follows: ELISA, ECM protein coated, recombinant protein detected with mouse antiserum; positive if signal 2.5x background.
In assay [3] the target is T1, human fibrinogen. Kind of assay: screen of binding to ECM proteins; format not detailed for EF1269.

B1: EF2224 A domain (EF2224A), N-terminal His6-tag fusion protein (other)
chain: QEVTSDAEKTVEKDGLKVIGKIEDTSSQEDIKTVTYEVTNTRDVPIKDLILKQKNTNDSPIKFVLDTLSEERGPTSLEEQAKVETNEKDQTTDIKLLNLQPNSTRKITINGQITTKASNKLLVSVLIEDNEKGTLVIDLPSKDILADKESVSKEKQETSETKVENQANETASSTNEMTATTSNETKPEAGKAIESIQETALTQATESPEQPPLKAQPTGPLVPPTPGRGFNTPIYQSVHKGELFSTGNTNLKIANENTAAAQTFLNTRGASSGYAINNFPLEFADVDNDPNTYNSSRAYIDLNGAKEIAWAGLFWSASRYKGPAYGTNLSDEEISAPVQFTTPNGTVQRVSPQRYHRIDQDATNPGQRFGYNNTGFSNYADVTSILQGDKSATGSYTLADIPMTSSLNGQYQYYNFSGWSLFVVTKDQASKSRAFSIYYGARGNAAGTNNEFTMSNFLTAKQGNLDPIVTWFTVQGDKYWTGDNAQIKNSAGTWVNISNTLNPVNNAMNATVTDNDEHMVDKYPGKFAPDHPNFLDIDIDRMAIPEGVLNAGQNQINFRTTSSGDDYSTNAIGFAVNAETPEFEIKKEIVEPKETYKVGETITYRVSLKNTKADSEAINSVSKDALDGRLNYLPGSLKIISGPNSGEKTDASGDDQAEYDETNKQIIVRVGNGATATQGGSYKADTAETIYEFKARINERAKANELVPNSATVEAVDILTSAKVNETSNIVEAKIADEQVT
notes: Expressed in E. coli from pQE-30 and purified; not shown: N-terminal His6-tag from vector pQE-30
For the molecule B1, in the assay with human fibrinogen [1], the binding result is “binds”.

B2: EF1093 A domain (recombinant EF1093), N-terminal His6-tag fusion protein (other)
chain: EENGESAQLVIHKKKMTDLPDPLIQNSGKEMSEFDKYQGLADVTFSIYNVTNEFYEQRAAGASVDAAKQAVQSLTPGKPVAQGTTDANGNVTVQLPKKQNGKDAVYTIKEEPKEGVVAATNMVVAFPVYEMIKQTDGSYKYGTEELAVVHIYPKNVVANDGSLHVKKVGTAENEGLNGAEFVISKSEGSPGTVKYIQGVKDGLYTWTTDKEQAKRFITGKSYEIGENDFTEAENGTGELTVKNLEVGSYILEEVKAPNNAELIENQTKTPFTIEANNQTPVEKTVKNDTSKVDKTTPSLDGKDVAIGEKIKYQISVNIPLGIADKEGDANKYVKFNLVDKHDAALTFDNVTSGEYAYALYDGDTVIAPENYQVTEQANGFTVAVNPAYIPTLTPGGTLKFVYFMHLNEKADPTKGFKNEANVDNGHTDDQTPPTVEVVTGGKRFIKVDGDVTATQALAGASFVVRDQNSDTANYLKIDETTKAATWVKTKAEATTFTTTADGLVDITGLKYGTYYLEETVAPDDYVLLTNRIEFVVNEQSYGTTENLVSPEKVPNKHK
notes: not shown: N-terminal His6-tag from vector pQE-30
Turning to B2, the binding result with human fibrinogen [2] is reported as “binds”.

B3: EF1269 A domain (EF1269A), N-terminal His6-tag fusion protein (other)
chain: ETGYAQTEPTSTSETNQISATPNVVPRKQVGNIVTAIQLTDKEGNPLGTINQYTDIYLRIEFNLPDNTVNSGDTSVITLPEELRLEKNMTFNVVDDTGTVVAIAQTDVANKTVTLTYTDYVENHANISGSLYFTSLIDFENVENESKIPIYVTVEGEKIFAGDLDYQGEGDDVNEKFSKYSWFIEDDPTEIYNVLRINPTGQTYTDLEVEDVLKTESLSYMKDTMKIERGQWTLDGNAIWQFTPEEDITDQLAVQYGPDDRNFSVHFGNIGTNEYRITYKTKIDHLPEKGETFTNYAKLTENQTVVEEVEVSRVSQTGGGEANGEQYVVEIHKEDEAGQRLAGAEFELIRNSTNQTVAKITTDQNGTAIVKGLLKDNYTLVETKAPTGYQLSQNKIPITPEDFGKNLVALKTVVNHKISYQPVAASFLAGKVLLGKPLKDAEFQFELLDEKGTVLETVSNDTLGKIQFSPLTFETPGNYQYTIREVNTQQTGVSYDTHNLQVQVTVEALLGNLVATTQYDGGQVFTNHYTPEKPIESTTPPTSGTTDTTTNSTTETTSITIEKQAIRNKE
notes: as for B2
On to B3, for which the binding result with human fibrinogen [3] is “no binding”.

B4: EF0089 A domain (EF0089A), N-terminal His6-tag fusion protein (other)
chain: EEVNSDGQLTLGEVKQTSQQEMTLALQGKAQPVTQEVVVHYSANVSIKAAHWAAPNNTRKIQVDDQKKQIQIELNQQALADTLVLTLNPTATEDVTFSYGQQQRALTLKTGTDPTESTAITSSPAASANEGSTEEASTNSSVPRSSEETVASTTKAIESKTTESTTVKPRVAGPTDISDYFTGDETTIIDNFEDPIYLNPDGTPATPPYKEDVTIHWNFNWSIPEDVREQMKAGDYFEFQLPGNLKPNKPGSGDLVDAEGNVYGTYTISEDGTVRFTFNERITSESDIHGDFSLDTHLNDSDGRGPGDWVIDIPTQEDLPPVVIPIVPDTEQQIDKQGHFDRTPNPSAITWTVDINQAMKDQTNPTVTETWPTGNTFKSVKVYELVMNLDGTIKEVGRELSPDEYTVDKNGNVTIKGDTNKAYRLEYQTTIDEAVIPDGGGDVPFKNHATLTSDNNPNGLDAEATVTATYGKMLDKRNIDYDEANQEFTWEINYNYGEQTIPKDQAVITDTMGDNLTFEPDSLHLYSVTFDDKGNEVVGAELVEGKDYKVVINGDGSFAIDFLHDVTGAVKIDYKTKVDGIVEGDVAVNNRVDVGTGQHSEDDGTASQQNIIKNTGAVDYQNSTIGWTLAVNQNNYLMENAVITDTYEPVPGLTMVPNSLVVKDTTTGAQLTLGKDFMVEITRNADGETGFKVSFIGAYAKTSDAFHITYTTFFDVTELDANNPALDHYRNTAAIDWTDEAGNNHHSEDSKPFKPLPAFDLNAQKSGVYNAVTKEITWTIAVNLSNNRLVDAFLTDPILTNQTYLAGSLKVYEGNTKPDGSVEKVKPTQPLTDITMEEPSEKNQNTWRVDFPNDSRTYVIEFKTSVDEKVIEGSASYDNTASYTNQGSSRDVTGKVSIQHGGESVKKGGEYHKDDPDHVYWHVMINGAQSVLDDVVITDTPSPNQVLDPESLVIYGTNVTEDGTITPDKSVILEEGKDYTLEVTTDNETGQQKIVVKMAHIEAPYYMEYRSLVTSSAAGSTDTVSNQVSITGNGSEVVHGDDNGDVVVDIDHSGGHATGTKGKIQLKKTAMDETTILAGAHFQIWDQAKTQVLREGTVDATGVITFGG
notes: as for B1
B4: in the assay with human fibrinogen [1], the binding result was “binds”.
